# Assay: soluble on expression in E. coli; label from the status in PepcDB or PDB records
row,Sequence,soluble on expression in E. coli
1,MAHHHHHHMQGTGSAKSFLEKLKSGRTTSAAIDNNAPPDGDGVILRRVERQYASEPLSALGLKLTEDAEVLSTEVGSPAAKSNIPLHYMIIAVNNQFVGSRADFEDIAAQLLTLVIKLQSTAAMSELLANILNEEEKNFNENGDSCIDVNELLRTTPRYGFLSAEHPMFLRWNQRLQTQREARQLIRQATREAEEQQAKEALEALRRVADAEDEIQQQQAQQERQHQQMLRQGPETVNPSAPEAGARPGGEVLLKQVQDESTFGESNVNNEGFEESPEEASPEELLKLIGAEPVETEVVQHVDADEPTEVRFFINPTEEYALSNGTRVTISVKKRSGPIPKPPPGKPPKGIEKADDKQAQ,not soluble
2,MIELKPPDVMPNGNIGTPSQYFLEQIRLCRLPTTVISKLGIQTQKRKKKFGEVDFQYEKTDSCKAEKIKCETIPGVEDELEDPTERVRMNQNPEDNDDGKDDDNDQCEEWERHEALHEDVTEQDRAKPRKYEEEMEVTWEKGGPGLVWYTDKNYWDEREKGTDCDWAWADDWDVDYSVYYEGKSAGDMDAKAAIEMRNDDLMRSGKLEQSAFTKKRNPHNLGTTRKRRNSDGGGSSEKASENLQKGIGGSMLAKMGWKPGTGLGKNEQGRVVPVAVYVEEDGQSSKEKTGFGYRGEKLSRVVQKKTIRHVIASAFDSVTDREQCEDKQSEEELHGEILFRRSEVTKMNKFQVLKLQFPKRNIQKTKTFQNFGKLSKCTQLYRFFLMN,not soluble
3,MKDSPFYQHYDLDLKDKPLGEGSFSICRKCVHKKSNQAFAVKIISKRMEANTQKEITALKLCEGHPNIVKLHEVFHDQLHTFLVMELLNGGELFERIKKKKHFSETEASYIMRKLVSAVSHMHDVGVVHRDLKPENLLFTDENDNLEIKIIDFGFARLKPPDNQPLKTPCFTLHYAAPELLNQNGYDESCDLWSLGVILYTMLSGQVPFQSHDRSLTCTSAVEIMKKIKKGDFSFEGEAWKNVSQEAKDLIQGLLTVDPNKRLKMSGLRYNEWLQDGSQLSSNPLMTPDILGSSGAAVHTCVKATFHAFNKYKREGFCLQNVDKA,soluble
4,MWPAIIQQLSEQLGKDFHLVEKEKVHGGDINECFMVSDGIDRYFVKTNQREYLTKFTAEVENLRVMRESNTVQVPEYILHGTSKTHAYLVLNYLATKPLDDAERSYEFGVQLANLHRWGEQKEFGFDIDNYIGATVQPNPWHKKWALFFAEQRIGWQLQLMQEKGVNLTNINEFVEMVKTRLANHSPRPSLLHGDLWFGNVANIVNGPLCFDPACYWGDRECDIALAEWFGGFQPEFFQGYESVWPLDWGYEERKDIYNLYHVLNHYNQFGGHYLDEAQKLIEKILSYLEHHHHHH,not soluble
5,ANFNVPKLGVFPVAAVFDIDNVPEDSSATGSRWLPSIYQGGNYWGGGPQALHAQVSNFDSSNRLPYNPRTENNPAGNCAFAFNPFGQYISNISSAQSVHRRIYGIDLNDEPLFSPNAASITNGGNPTMSQDTGYHNIGPINTAYKAEIFRPVNPLPMSDTAPDPETLEPGQTEPLIKSDGVYSNSGIASFIFDRPVTEPNPNWPPLPPPVIPIIYPTPALGIGAAAAYGFGYQVTVYRWEEIPVEFIADPETCPAQPTTDKVIIRTTDLNPEGSPCAYEAGIILVRQTSNPMNAVAGRLVPYVEDIAVDIFLTGKFFTLNPPLRITNNYFADDEVKENTVTIGNYTTTLSSAYYAVYKTDGYGGATCFIASGGAGISALVQLQDNSVLDVLYYSLPLSLGGSKAAIDEWVANNCGLFPMSGGLDKTTLLEIPRRQLEAINPQDGPGQYDLFILDDSGAYASFSSFIGYPEAAYYVAGAATFMDVENPDEIIFILRNGAGWYACEIGDALKIADDEFDSVDYFAYRGGVMFIGSARYTEGGDPLPIKYRAIIPGLP,soluble
6,MQQVFNVSVPVPDDVVIISKEEYLNLLSDNEQGKWWDIDNLQELLGIGRSKLINDILLNPDIKKEVDLSINPNGFIVYPKGKGSRYKILATKARKYFEDNFGS,not soluble
7,AIAASLSDQSGSIGSEQTRPSGAIPVESLPPQALEQLIASLQQEVEQLADALQQLNFANQRWTLCKQSIEAFAEETTRVDLPGAQSRATDAISSTASAKPETSVEVNQNQRLLVPLSRSLYVLGRVINPERCLIDIGTGYHVERKLADAAEFFDRRLKHVRGSMRQLTLKIDQNQQQMQTIREILVRKLAGAQQAAEHT,soluble
8,MQQQILERIEDCYQQAEAYFKRAFPRPTTQFTLRGRSAGTAHLQQNRLRFNPVLLRENSEAFLAEVVPHEISHLLCFQIFGKTKPHGREWQSIMLKLFKISPNTTHNFDTQSVKGKDVEYRCACGPIRLGIRRHNKVLRGETRYLCKRCHTHLTLALEHHHHHH,not soluble
